Columns and labels:
[1] = biological target: DENV3 NS5 wild type (Dengue virus serotype 3) (UniProt Q5UB51); assay: fluorescence titration; details: all adenosines are 1,N6-ethenoadenosine; Fluorescence: 50 mM Tris-HCl pH 7.5, 100 mM NaCl, 1 mM MgCl2, 1 mM DTT, 10% glycerol; EMSA: 20 mM Tris pH 7.4, 150 mM NaCl, 2 mM MgCl2, 5% glycerol, room …
[2] = biological target: DENV3 NS5 wild type (Dengue virus serotype 3) (UniProt Q5UB51); assay: fluorescence competition; details: Fluorescence: 50 mM Tris-HCl pH 7.5, 100 mM NaCl, 1 mM MgCl2, 1 mM DTT, 10% glycerol; EMSA: 20 mM Tris pH 7.4, 150 mM NaCl, 2 mM MgCl2, 5% glycerol, room …

Chain of DENV3 NS5 wild type (Dengue virus serotype 3) (Q5UB51 2491-3390): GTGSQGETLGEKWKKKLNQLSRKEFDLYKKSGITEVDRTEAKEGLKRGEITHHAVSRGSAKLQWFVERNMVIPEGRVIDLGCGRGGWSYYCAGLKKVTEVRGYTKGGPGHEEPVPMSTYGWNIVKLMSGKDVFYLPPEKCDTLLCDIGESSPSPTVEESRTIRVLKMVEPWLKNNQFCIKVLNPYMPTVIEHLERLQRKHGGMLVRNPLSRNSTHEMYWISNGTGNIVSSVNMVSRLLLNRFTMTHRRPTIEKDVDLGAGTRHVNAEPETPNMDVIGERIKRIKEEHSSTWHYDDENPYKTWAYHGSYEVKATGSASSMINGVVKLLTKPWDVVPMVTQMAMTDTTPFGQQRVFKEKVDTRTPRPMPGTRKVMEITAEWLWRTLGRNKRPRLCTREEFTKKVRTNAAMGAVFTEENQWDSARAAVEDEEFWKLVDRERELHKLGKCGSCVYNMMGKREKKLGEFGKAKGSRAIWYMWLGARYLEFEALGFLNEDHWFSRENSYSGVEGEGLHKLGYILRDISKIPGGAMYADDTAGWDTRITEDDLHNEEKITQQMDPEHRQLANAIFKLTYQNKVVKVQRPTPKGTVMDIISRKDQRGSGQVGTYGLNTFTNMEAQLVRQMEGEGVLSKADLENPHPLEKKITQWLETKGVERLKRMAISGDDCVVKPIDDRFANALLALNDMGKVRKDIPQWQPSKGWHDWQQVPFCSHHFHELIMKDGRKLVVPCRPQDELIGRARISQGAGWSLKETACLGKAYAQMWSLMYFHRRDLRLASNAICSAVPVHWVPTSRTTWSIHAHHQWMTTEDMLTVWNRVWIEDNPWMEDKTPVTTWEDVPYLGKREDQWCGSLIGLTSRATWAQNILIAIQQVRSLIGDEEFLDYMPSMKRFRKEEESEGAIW

AAAAAAAAAAAAAAAAAAAA [εA(pεA)19]
Ka [1]: 2.1e+06 M⁻¹

tRNA-SLADENV
Ka [2]: 4.8e+06 M⁻¹

From PMC8100141
